T1: mouse FcRn (R&D systems, 9114-Fc) (mouse, UniProt Q61559 22-297; P01887 21-119, limits assumed)
T1 sequence (looked up) 1: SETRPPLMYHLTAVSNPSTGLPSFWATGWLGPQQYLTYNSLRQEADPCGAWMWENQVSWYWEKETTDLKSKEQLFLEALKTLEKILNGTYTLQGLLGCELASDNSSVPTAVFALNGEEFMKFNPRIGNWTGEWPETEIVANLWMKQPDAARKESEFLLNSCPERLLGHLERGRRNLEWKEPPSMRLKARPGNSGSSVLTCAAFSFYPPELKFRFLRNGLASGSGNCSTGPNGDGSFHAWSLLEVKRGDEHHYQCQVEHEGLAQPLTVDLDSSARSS
T1 sequence (looked up) 2: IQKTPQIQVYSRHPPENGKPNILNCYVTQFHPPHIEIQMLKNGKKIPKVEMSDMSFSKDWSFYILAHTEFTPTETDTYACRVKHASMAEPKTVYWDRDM


Experiments:
[1] = target: Human FcRn (Acro Biosystems, FCM-H5286) (human, UniProt P55899 24-297; P61769 21-119); assay: SPR, antibody immobilised, FcRn in flow, pH 6.0, steady state affinity; pH 6.0
Sequence of Human FcRn (Acro Biosystems, FCM-H5286) (P55899 24-297 limits assumed, chain 1 of 2): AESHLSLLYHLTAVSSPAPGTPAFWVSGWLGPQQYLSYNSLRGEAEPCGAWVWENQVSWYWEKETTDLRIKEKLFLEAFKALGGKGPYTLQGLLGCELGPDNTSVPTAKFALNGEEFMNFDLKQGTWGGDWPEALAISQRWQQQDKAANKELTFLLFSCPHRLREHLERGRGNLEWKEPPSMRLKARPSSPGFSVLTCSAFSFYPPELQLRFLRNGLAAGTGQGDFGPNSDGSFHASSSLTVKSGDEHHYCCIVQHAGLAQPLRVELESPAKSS
Sequence of Human FcRn (Acro Biosystems, FCM-H5286) (P61769 21-119 limits assumed, chain 2 of 2): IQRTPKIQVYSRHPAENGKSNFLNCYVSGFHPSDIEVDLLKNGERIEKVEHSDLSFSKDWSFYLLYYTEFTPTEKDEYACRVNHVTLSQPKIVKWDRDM
Source text: (§1) The neonatal Fc receptor (FcRn) binding is critical for antibody recycling (Martins et al., 2016). […] G1-AA/HeID1.3 was included as an isotype control IgG control lacking mutations in the CH3 domain.
(§2) Briefly, mAb² were individually coated on flow cell 2, 3 and 4 of Series S Sensor Chip CM5 (GE Healthcare, BR100530) to achieve a response of approximately 1000 RU. Flow cell 1 was activated/deactivated but left blank as a reference. Human FcRn (Acro Biosystems, FCM-H5286) or mouse FcRn (R&D systems, 9114-Fc) was dialysed and diluted in MHBS-EP⁺B pH 6.0 or pH 7.4 buffer (10 mM MES, FortéBio, 18-5026; 1×HBS-EP, GE Healthcare, BR100669; 0.1 mg/ml BSA, Sigma, A7906) and injected on flow cell 1, 2, 3 and 4 at 2000-3000 nM with 2-fold dilutions for 1 min at 80 μl/min and then allowed to dissociate in buffer for 3 min. […] Subtracted data (flow cell 2−flow cell 1, flow cell 3−flow cell 1, or flow cell 4−flow cell 1) was analysed using Biacore T200 Evaluation Software 2.0 to identify binding using the model steady state affinity.

[2] = target: T1, mouse FcRn (R&D systems, 9114-Fc); assay: as above
Source text: as §1, §2

[3] = target: T2, human PD-L1, cell-surface (human, UniProt Q9NZQ7 19-290); assay: cell-based or functional assay
T2 sequence (Q9NZQ7 19-290): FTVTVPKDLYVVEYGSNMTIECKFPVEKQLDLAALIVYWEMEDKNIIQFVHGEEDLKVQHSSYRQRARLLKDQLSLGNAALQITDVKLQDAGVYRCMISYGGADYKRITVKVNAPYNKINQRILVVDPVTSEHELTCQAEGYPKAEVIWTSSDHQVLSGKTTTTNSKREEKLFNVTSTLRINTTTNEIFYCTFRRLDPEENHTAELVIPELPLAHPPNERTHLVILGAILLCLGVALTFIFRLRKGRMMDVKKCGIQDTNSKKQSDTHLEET

[4] = target: T2, human PD-L1, cell-surface; assay: cell-based or functional assay; remark: listed apart in the source
[5] = target: T2, human PD-L1, cell-surface; assay: cell-based or functional assay; remark: listed apart in the source
[6] = target: T2, human PD-L1, cell-surface; assay: cell-based or functional assay; remark: listed apart in the source
[7] = target: T3, cynomolgus PD-L1, cell-surface (cynomolgus); assay: flow cytometry on HEK.cPD-L1
T3 construct: also called HEK.cPD-L1; HEK.cyPD-L1
T3 sequence (chain, as listed by the source limits assumed): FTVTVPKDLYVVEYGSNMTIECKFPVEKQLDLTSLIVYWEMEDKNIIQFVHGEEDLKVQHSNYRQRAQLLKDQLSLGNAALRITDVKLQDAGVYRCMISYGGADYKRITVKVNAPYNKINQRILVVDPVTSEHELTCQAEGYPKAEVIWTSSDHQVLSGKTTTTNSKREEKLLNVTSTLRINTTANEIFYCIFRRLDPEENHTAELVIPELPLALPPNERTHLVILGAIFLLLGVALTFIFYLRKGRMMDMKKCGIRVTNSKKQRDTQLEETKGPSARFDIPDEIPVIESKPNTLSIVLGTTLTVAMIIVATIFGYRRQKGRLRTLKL
Method: (§3) Non-specific binding was also assessed by testing binding to HEK293 parental cells lacking human PD-L1 (Flp-In T-Rex 293 cell line, Life Technologies, R780-07).
(§4) HEK293, HEK.hPD-L1 and HEK.cPD-L1 suspensions were prepared in FACS buffer (DPBS (Gibco, 14190-094) containing 0.5% BSA (Sigma, A7906)) and seeded at 1×10⁵ cell/well in 100 μl in round bottomed 96-well plates (VWR, 734-1797). […] The washed cells were resuspended in the diluted antibody mixture, incubated at 4° C. for 30 minutes, and then washed once in FACS buffer. […] Dead cells were excluded and the fluorescence in the APC channel (638 nm 660/20) was measured. The geometric mean fluorescence intensity (GMFI) values were plotted vs the log concentration of antibody and the resulting curves were fitted using the log (agonist) vs response equation in GraphPad Prism.

[8] = target: T2, human PD-L1, cell-surface; assay: flow cytometry on HEK.hPD-L1
Method: as §3, §4

[9] = target: T4, biotinylated hPD-L1-Avi-His (Acro Biosystems, PD1-H82E5) (human, UniProt Q9NZQ7 19-238, biotinylated); assay: SPR, antibody captured on Protein A chip, antigen in flow
T4 construct: bought; also called Human PD-L1-His; not shown: Avi and His tags of the bought product
T4 sequence (Q9NZQ7 19-238): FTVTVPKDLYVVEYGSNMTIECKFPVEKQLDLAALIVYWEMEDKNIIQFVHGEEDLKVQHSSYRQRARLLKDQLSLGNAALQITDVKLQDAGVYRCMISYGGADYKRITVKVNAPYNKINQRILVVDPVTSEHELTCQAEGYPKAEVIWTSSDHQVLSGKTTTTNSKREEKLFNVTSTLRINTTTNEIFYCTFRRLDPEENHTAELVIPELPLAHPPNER

[10] = target: T5, cPD-L1-His (Acro Biosystems, PD1-C52H4) (cynomolgus, UniProt Q9NZQ7 19-238 (human entry)); assay: as above
T5 construct: bought; also called Cyno PD-L1-His; Cynomolgus PD-L1-His; not shown: His tag of the bought product
T5 sequence (Q9NZQ7 other isoform, or with tags, fused parts or gaps): as the sequence (Q9NZQ7 19-238) above, with A33T, A34S, S62N, R68Q, Q82R, F173L, T185A, T192I, H215L counted along it

[11] = target: T2, human PD-L1, cell-surface; assay: flow cytometry on activated primary human CD4+ T cells; activated primary human CD4+ T cells
Method: CD137 is rapidly expressed to high levels on activated CD8⁺ T cells and also on activated CD4⁺ T cells with lower levels (Xue-Zhong Yu et al, 2013), therefore Pan T cells were stimulated for 24 hours using Dynabeads™ Human T-Activator CD3/CD28 beads (Thermo, 11132D) according to manufacturer's instructions.
Dead cells were excluded and the fluorescence in the APC channel (638 nm 660/20) was measured to show test antibody binding. The geometric Mean Fluorescence Intensity (GMFI) values were plotted vs the log concentration of antibody and the resulting curves were fitted using the log (agonist) vs response equation in GraphPad Prism.

| Binder | Kd [1] [nM] | Kd [2] [nM] | EC50 (nM), IFN-γ release, human MLR [3] [nM] | EC50 (nM), IFN-γ release, CEFT antigen recall assay (CD4+ T cell activation) [4] [nM] | EC50 (nM), IFN-γ release, CEF antigen recall assay (CD8+ T cell activation) [5] [nM] | EC50 (nM), mouse IL-2 release, DO11.10 / LK35.2 PD-L1 blockade assay [6] [nM] | EC50 [7] [nM] | EC50 [8] [nM] | Kd [9] [nM] | Kd [10] [nM] | EC50 [11] [nM] |
| --- | --- | --- | --- | --- | --- | --- | --- | --- | --- | --- | --- |
| G1-AA/HeID1.3 (antibody, human IgG1, kappa, L234A L235A, anti-hen egg lysozyme IgG1 with LALA, isotype control) heavy: not shown light: DIQMTQSPASLSASVGETVTITCRASGNIHNYLAWYQQKQGKSPQLLVYNAKTLADGVPSRFSGSGSGTQYSLKINSLQPEDFGSYYCQHFWSTPRTFGGGTKLEIKRTVAAPSVFIFPPSDEQLKSGTASVVCLLNNFYPREAKVQWKVDNALQSGNSQESVTEQDSKDSTYSLSSTLTLSKADYEKHKVYACEVTHQGLSSPVTKSFNRGEC | 1230 | 160 |  |  |  |  |  |  |  |  |  |
| G1-AA/E12v2 (antibody, human IgG1, kappa, L234A L235A, V domains shown, anti-PD-L1 IgG1 with LALA) VH: EVQLVQSGAEVKRPGASVKVSCKASGYPFTSYGISWVRQAPGQGLEWMGWISAYSGGTNYAQKLQGRVTMTTDTSTSTAYMELRSLRSDDTAVYYCARDLFPTIFGVSYYYYWGQGTLVTVSS VL: DIQMTQSPSTLSASVRDRVIITCRASQSIGNRLAWYQHKPGKAPKLLIYEASTSETGVPSRFSGSGSGTDFTLTISSLQPEDFATYYCQQSYSTPYTFGQGTKLEIKR |  |  | 0.08 | 0.06 | 0.04 | 1.19 | 0.6 | 3.1 | 0.21 | 0.37 | 0.8 |

Source: US20250346679A1 (INVOX PHARMA, published 2025)
